Measured values published in article PMC4189953.

How the values were obtained:
[1] = target: CFP-tagged ICln (C-ICln) (human) (UniProt P54105); assay: FRET or BRET; acceptor photobleaching FRET (FRETeff), living HEK cells 24 h after transfection, 37°C, slightly hypertonic extracellular solution (317 mOsm, pH 7.4); CFP donor, YFP acceptor; whole cell bleached
[2] = target: CFP-tagged ICln (C-ICln) (human) (UniProt P54105); assay: FRET or BRET; acceptor photobleaching FRET (FRETeff), living HEK cells, 37°C, after 10 min exposure to the hypotonic extracellular solution; CFP donor, YFP acceptor

UniProt P54105, sequence (P54105 whole entry): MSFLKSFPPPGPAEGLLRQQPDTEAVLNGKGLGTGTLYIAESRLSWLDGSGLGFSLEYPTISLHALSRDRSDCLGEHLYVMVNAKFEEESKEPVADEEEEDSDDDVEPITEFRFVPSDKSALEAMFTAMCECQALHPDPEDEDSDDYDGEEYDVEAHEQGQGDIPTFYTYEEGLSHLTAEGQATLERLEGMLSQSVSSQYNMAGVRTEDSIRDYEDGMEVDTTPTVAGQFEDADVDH

- FRETeff [1]: 11.6
- FRETeff [2]: 15.1
Substance: YFP-tagged 4.1R^80 (Y-4.1R^80) (natural protein)
